Measurements published in article PMC4049620.

Key:
[1] = target: T9 SipA_(36-173), N-terminally His-tagged (entire extracellular region of SipA from S. pyogenes serotype T9 strain 90/306S) (Streptococcus pyogenes serotype T9 strain 90/306S); assay: crystal structure; Space group P6_(4)22, two molecules in the asymmetric unit; octamer built by crystal symmetry; crystals grown at 18°C from 1 M NaKPO4 pH 7.0, 8% MPD
[2] = target: T9 SipA_(36-173), N-terminally His-tagged (entire extracellular region of SipA from S. pyogenes serotype T9 strain 90/306S) (Streptococcus pyogenes serotype T9 strain 90/306S); assay: SEC + other: dynamic light scattering; Superdex S200 10/300 in 10 mM Tris.Cl pH 8.0, 100 mM NaCl; single peak, species of about 150 kDa after glycine treatment; data not shown
[3] = target: T9 SipA_(36-173), N-terminally His-tagged (entire extracellular region of SipA from S. pyogenes serotype T9 strain 90/306S) (Streptococcus pyogenes serotype T9 strain 90/306S); assay: SAXS; Australian Synchrotron SAXS/WAXS beamline; dilution series 1-20 mg/ml; experimental curve compared by CRYSOL with the curve calculated from the crystal octamer (chi^2 = 1.29)

Measured: stoichiometry N

T9 SipA_(36-173), N-terminally His-tagged (entire extracellular region of SipA from S. pyogenes serotype T9 strain 90/306S) (domain or fragment)
8: all assays above
